Test results as given in patent publication US20100196361A1, “Method of inhibition of vascular development using an antibody” (DYAX CORP., priority 2003, published 2010).

T1: human Tie1 Fc (Homo sapiens, UniProt P35590)
T1 construct: selected against the Tie1 extracellular domain fused to human Fc or to a histidine purification tag
T1 sequence (P35590 22-759 limits assumed): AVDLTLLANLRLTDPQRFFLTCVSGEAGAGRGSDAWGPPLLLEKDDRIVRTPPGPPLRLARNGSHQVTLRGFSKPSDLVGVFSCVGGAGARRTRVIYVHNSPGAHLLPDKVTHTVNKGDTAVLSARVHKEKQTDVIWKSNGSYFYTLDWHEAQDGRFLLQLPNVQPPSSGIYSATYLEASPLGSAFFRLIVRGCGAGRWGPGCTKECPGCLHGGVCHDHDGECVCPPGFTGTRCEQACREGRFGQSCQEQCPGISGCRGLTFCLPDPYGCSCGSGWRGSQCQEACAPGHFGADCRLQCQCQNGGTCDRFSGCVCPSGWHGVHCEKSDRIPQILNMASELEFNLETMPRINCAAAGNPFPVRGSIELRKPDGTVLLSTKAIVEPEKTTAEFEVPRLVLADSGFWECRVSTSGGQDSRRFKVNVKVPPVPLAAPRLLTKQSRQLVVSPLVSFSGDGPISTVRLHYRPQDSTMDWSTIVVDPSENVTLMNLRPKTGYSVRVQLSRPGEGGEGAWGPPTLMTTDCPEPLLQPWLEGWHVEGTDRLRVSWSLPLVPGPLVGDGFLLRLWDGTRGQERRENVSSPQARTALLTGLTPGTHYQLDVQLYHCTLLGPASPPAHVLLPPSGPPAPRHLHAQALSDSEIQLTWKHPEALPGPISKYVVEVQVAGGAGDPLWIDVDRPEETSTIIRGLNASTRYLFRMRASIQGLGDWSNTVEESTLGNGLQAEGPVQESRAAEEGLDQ


Experiments:
human Tie1 Fc = biological target: T1, human Tie1 Fc; test: BIAcore, Tie1 Fc over IgG coated on CM5 chip; type: binding; settings: IgG immobilised; Human Tie1 Fc analyte
Method: The germlined E3 IgG1 stock solution 0.63 mg/ml was diluted 1/50 in a buffer of pH4.5 and the parental E3 IgG1 stock solution 0.56 mg/ml (2143-001) was diluted 1/50 in a buffer of pH 4.5. The IgG were directly coated onto a CM5 chip. The surface of the chips was activated with a 7 minute pulse of 0.05M NHS/0.2M EDC and the IgG was flowed over until 780RU germlined E3-IgG and 728 non germlined E3 IgG was coated onto the surface. All flow cells were subsequently deactivated with a 7 minute pulse of 1M ethanolamine hydrochloride pH 8.5. All analysis was performed in HBS buffer. Purified recombinant human Tie1 Fc was diluted 1/28.7 in HBS to obtain a 400 nM stock solution. Serial dilutions were made to obtain 200 nM, 100 nM, 50 nM and 25 nM Tie1 Fc stocks. For analysis of the association phase samples were injected at 30 μl/min for 8.3 minutes using kinject program. This was followed by a 40 minutes dissociation phase. Any antigen remaining associated to the surface was stripped from the IgG surface at a flow of 50 μl/min with two injections of 10 mM glycine pH 1.5 for 30 seconds. All samples were run and analyzed in duplicate
Sensorgrams were analyzed using the simultaneous ka/kd fitting program with 1:1 model in the BIAEVALUATION™ software 3.1.

mouse Tie1 = biological target: T2, mouse Tie1 (Mus musculus, UniProt Q06806); test: Flow cytometry on mouse endothelial cell lines; type: binding; settings: MS1, Le-2, Bend3, SVEC, biotinylated antibody
T2 construct: host or cells: MS1, Le-2, Bend3, SVEC
Method: We evaluated if E3 cross reacts with mouse Tie1 in situ and thus if we can evaluate E3 activity in mouse tumor xenograft models binding to mouse endothelial cells was tested and compared with human and transfected cell lines.
Specific binding of the Tie1 antibodies and of control Mabs to mouse endothelial cells was measured by flow cytometry analysis (FACSscan, Becton Dickinson, Oxnard, Epics, Coulter). Mouse endothelial cell lines MS1, Le-2, Bend3, SVEC (ATCC, Rockville) and Tie1 transfected Le-2 cells were stained. Cell staining was modified from existing protocols. About 200,000 cells were used in each experiment: after trypsinization, cells were washed one time in PBS and resuspended PBS, 10% heat inactivated human serum (incubation buffer). […] After the final incubation step bound antibodies were detected by means of flow cytometry on a FACSCan and Epics Altra (Becton Dickinson, Oxnard, Coulter) and results analyzed.
Intracellular Tie1 was measured as described above, except for the addition of Saponin to the incubation buffer to a final concentration of 0.1% during incubations. […] The binding pattern in mouse cell lines detected by flow cytometry is different from the binding pattern in HUVEC in that in mouse cells there is a greater cell surface staining than that compared to primary human endothelial cell lines. […]

T2 sequence (Q06806 23-1134): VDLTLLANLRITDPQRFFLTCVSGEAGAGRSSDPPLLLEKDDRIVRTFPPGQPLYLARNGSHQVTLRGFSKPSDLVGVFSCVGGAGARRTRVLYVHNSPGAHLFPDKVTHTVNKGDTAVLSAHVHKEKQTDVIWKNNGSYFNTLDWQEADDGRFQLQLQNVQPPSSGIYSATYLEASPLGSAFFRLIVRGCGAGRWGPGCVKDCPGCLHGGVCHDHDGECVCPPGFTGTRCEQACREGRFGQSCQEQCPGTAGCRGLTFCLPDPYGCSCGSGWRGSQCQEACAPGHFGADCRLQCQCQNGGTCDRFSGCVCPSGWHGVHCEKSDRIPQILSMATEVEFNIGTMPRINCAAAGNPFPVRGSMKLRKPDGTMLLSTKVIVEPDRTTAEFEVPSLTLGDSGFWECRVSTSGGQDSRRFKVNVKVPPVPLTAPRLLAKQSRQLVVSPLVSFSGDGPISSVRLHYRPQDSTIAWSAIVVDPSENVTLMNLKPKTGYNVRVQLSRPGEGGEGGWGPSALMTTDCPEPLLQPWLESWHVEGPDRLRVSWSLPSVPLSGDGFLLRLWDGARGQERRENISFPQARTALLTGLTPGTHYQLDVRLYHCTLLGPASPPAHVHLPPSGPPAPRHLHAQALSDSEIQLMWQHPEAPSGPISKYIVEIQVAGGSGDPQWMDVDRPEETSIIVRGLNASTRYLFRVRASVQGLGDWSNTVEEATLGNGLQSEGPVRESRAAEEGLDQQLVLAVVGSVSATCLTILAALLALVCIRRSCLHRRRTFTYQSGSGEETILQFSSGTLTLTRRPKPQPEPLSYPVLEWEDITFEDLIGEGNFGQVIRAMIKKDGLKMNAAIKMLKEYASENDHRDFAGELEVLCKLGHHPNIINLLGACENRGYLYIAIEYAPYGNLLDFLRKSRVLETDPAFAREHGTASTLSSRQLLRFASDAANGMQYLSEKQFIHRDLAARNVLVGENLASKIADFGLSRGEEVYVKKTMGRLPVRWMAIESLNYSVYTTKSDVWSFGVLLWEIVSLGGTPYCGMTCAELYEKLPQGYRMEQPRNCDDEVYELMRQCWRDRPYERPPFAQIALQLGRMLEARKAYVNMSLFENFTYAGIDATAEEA

Row | Molecule | koff (human Tie1 Fc) [s⁻¹] | kon (human Tie1 Fc) [M⁻¹ s⁻¹] | binding to mouse endothelial cell lines (mouse Tie1)
1 | E3: human anti-Tie1 antibody from phage Fab library, reformatted as IgG; HC variable SEQ ID NO:114, LC variable SEQ ID NO:116 (antibody, V domains shown, IgG constant regions; Synthetically generated peptide) VH: EVQLLESGGGLVQPGGSLRLSCAASGFTFSMYGMVWVRQAPGKGLEWVSVISPSGGNTGYADSVKGRFTISRDNSKNTLYLQVNSLRAEDTAVYYCARAPRGYSYGYYYWGQGTLVTVSSASTKGPSVFPLAPSSKSTSGG VL: DIQMTQSPLSLSASVGDRVTITCRASQGIGHYLAWYQQKPGKVPKLLIYTASTLQSGVPSRFSGSGSGTDFTLTINSLQPEDVATYYCQQFNSYPHTFGQGTRLDIK | 3.61e-05 | 6190 | binds to mouse endothelial cell lines
2 | DX-2210: E3 antibody in which the light chain has been germlined (antibody, V domains shown) VH: EVQLLESGGGLVQPGGSLRLSCAASGFTFSMYGMVWVRQAPGKGLEWVSVISPSGGNTGYADSVKGRFTISRDNSKNTLYLQVNSLRAEDTAVYYCARAPRGYSYGYYYWGQGTLVTVSSASTKGPSVFPLAPSSKSTSGG VL: DIQMTQSPSSLSASVGDRVTITCRASQGIGHYLAWYQQKPGKVPKLLIYTASTLQSGVPSRFSGSGSGTDFTLTISSLQPEDVATYYCQQFNSYPHTFGQGTRLEIK | 3.67e-05 | 7090 | stained positively
